Experimental data reported in the domain aggregation screens of Martell et al. (2025).

Experiment: soluble fraction after stress (log2 fold change); higher = more stays soluble; pooled small domains, quantitative proteomics
Conditions: stress: pH 4
Outline: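 Aggregation propensity here comes from the fold change in the soluble amount of each small protein domain after acid stress, measured in pooled custom libraries by high-throughput quantitative proteomics. The acid stress was pH 4. On the log2 scale, higher values mean more of the domain stayed soluble.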

| Sequence | soluble fraction (log2) |
| --- | --- |
| HMVINTRHTGFVVDDLERFINFYLGLGLKLISRKVESGEYIDKLVGLKGTKLEWAKLSLPDNSMIEILKYH | -0.454 |
| HMDRFVLQLSKRYYDSSIEGVRKALAAFPVKTELLDQDRGGRPFYHENGKENEPVFRIMFHPEEGM | -0.116 |
| HMDIMTVGERVKKLAEKQGISLRELAKKAELSYNTVYSITRRGSERVAPDTISRLANALGVNVNELT | ≥ 0.43 |
| HMVDDRPVTGTTLIREWQGRAYEVIVQAGHFEFQGQRYQSLSAIAKVITGTVWNGWAFFGLR | -0.444 |
| HMRERLPFGFAQSKKVVLLSTESDTPKVLSVNWPSLDLYAELKRVIGRAFLLEIVSEEEFQAQVSDAYQRD | -1.48 |
| HMGIVTMPGQGSKMRFDFDATGDLPSSTSWRGMFAYANNTKRAYVSTGTTMGGYNGWRQLIAMDEYGNYQT | 0.22 |
| HMHWDIAQADAKQEVMDSSDDKEAIERIQANMFKDPKDHDQEYANKILNDMIDEIKEKGLEAMQHKFAQE | ≥ 0.43 |
| HMYSIDNPPDWLKNLPKGAIRIGVEVFNQVLSKADDEDRARMAAWSAIKAKYEKADDGQWQPKAA | 0.221 |
| HMATPTEHQLQAQARAVVEKAERLLDRASADDREDIINLIEKITDALAAEDFTAVKAPLAELSDILFYLE | -0.27 |
| HMIAVIKPSATAEQKAGLVDWIRGQGIDVHISEGHDYTVLGLIGDTSKIDMDLIASLDIVDSVKRVA | -0.168 |
| HMSAPVFRITPAGVVVNGLKRSDILTLTRIDGAMNTLPHNAGEVLVSTEGLAKGVYVITAGGKSLKFLV | 0.00157 |
| HMHSVIALTIPADYAGLRLDQALAKLLPNWSRSRLQTWIAENRVILDGQITTIKQKVWGNELIQISPQD | -0.252 |
| HMQSITAGDKVRVKNYTVSGGKKRGKVYGGAGTFVVYYEKYDVISVTGDRVVIGIGKAVTAAVHIDDLEK | -0.932 |
| HMKPALFSADELNRLYRYGLSLTGERDRAYDLLQTALEKYLRQSQAPANAMRYVRKIMHNQFIDDYR | -0.0906 |
| HMPATIEGIRLYLSSGLIKGVGEEMASRIVKAFGTDTIRVLDEEPERLLKVRGVGKKSLDRIRTSWAEH | -0.585 |
| HMSVAVKAPLQGTVMKVNVKPGDTVTKGAPVAVIEALKMENDVPAPQDGVVASVDVKSGDSVKTDQVLLTL | -0.00426 |
| HMKGTSIELIVPQDIAGLRLDQVLAKLLPQWSRSRLQSWINEKHITVNGQTTTAKQKLWGNETIQIIPPI | -0.0718 |
| HMLINIKTNSAVNVRSGPGMGFEVVNTYPSGYILQAKEMQKDGGDNVWYKVKDGWLSANYTIDI | 0.394 |
| HMNLTLMDALKAAGLPVDGINLSMVNKMMEEQMPIDKTSLNQMYQLVQDNKDINVTTLVELKRLG | -0.393 |
| HMAQLKYEQIKSYLQAEAVKPESATRMPTVRELMRRFNVSLVTVNRALSELEHAKVIVRRQGAGIVAAQ | 0.0424 |
| HMKVYPIMEAIANNNIELVKLLLEYHADLNIKDSNGNTPLALAKETGAKEVEDLLLQWMKQHT | -0.834 |
| HMEILTLEELKRLMAKAKLKQNQISGHAGVSKQQISMILAGKRNITKDVSDNLKANLAEYFP | 0.107 |
| HMANDNFPLKLGSKGPRVLQLKTMLIQSLSNDALPKGRSSDAFDSELEALLSRNNLPTVIDETNFRVLTK | 0.0149 |
| HMYLELVTKEGGSFDEPDYWGRRKLAYEIAGKTEGNYVVVKYTAEPATSDELDRVLNLNESVIRTKILRK | -0.461 |
| HMTDTDVLSSRLSALSSGRTSAVRLRDGVLSLVLDVGGLSIEARKAMTTAIESTARATPGVEAVRIAET | 0.278 |

| Sequence | soluble fraction (log2) |
| --- | --- |
| HMETAESLLRRLIMLEDPAMQNAMYVLAVMLERGKQLVERAAKPHESGGILRVYEHKKSGDTFVVLDPR | -1.05 |
| HMHHIDTAWFRGKMREHRLTQEAVGQAIGLERSMVSKIIKGTVSFNARKASAWAQLLRVSESEILERVGI | -0.379 |
| HMWNKGETKIPTQAQNELIKRRQAGATWTSLSEWLKATYGIDIHRTNIQRWYDKEVYLDQEN | -0.556 |
| HMVTTLLIINVAGKVKNPGVYQLPPGSRVVDALEAAGQQLKGVDISDINLARVLVDGEQILIGSN | -1.35 |
| HMIHFDHPERSILDTMLYEKKGMTAQSARNRLAAYQFQGEDVFKPVSVLSGGELSRITLAIKNAMADK | 0.0479 |
| HMLLSTHVVVAKEDVQIGTRLQPAMLQVVDWPSASPLKNPLTSIEQATDRVVNMPLVKGEPISMSKLAAKG | 0.0815 |
| HMELEQLKSQLTGFLKANREQIFTAQNLADGLRMTDSQGYKQVVNALNASVRDGDVIDIKNGYQYNKN | -0.0153 |
| HMPELSITDADIIVAGGRGMGSAENFGLIRELAGLLGAAVGASRVVVDAEWVDQKHLIGQTGK | -0.507 |
| HMASMHDGVAARLRAMVFERELAPGEFIDERRLAQQWQISRTPLREALKVLAAEGLVELVPRRGARVV | -0.275 |
| HMDPTHDMHFLVKDQVTGQPLPNMPYRLQLDNGQTLTGRTDALGMTEKISGHSPHIASIEVPY | 0.025 |
| HMINIFKVKKAMEEIFASEWEDSPYTDQKISQILWSRGFSVSTGLVEKYRGQMGVPDANSRLNLN | -1.39 |
| HMDAIAYLGSRLKEIRLKSGLSLREIARQLDVSPSFISQIENGKSQPSVATLYAFAKLLNVPVDVLFQPS | -0.455 |
| HMQTTDTGAIETIVDELMAANPDKVEAYRGGKTGLQGFFMGQVMKQLGGQGNPKVISAIVTEKLE | 0.257 |
| HMGQDLSYYIKIVQNQQPVDPLTGEPKVLDYGEVIRQAQILQMLDTGDLDRDKAIGQLSMKDAL | -0.26 |
| HMAGDVVVEVVGKVRDPQVVTLPKGSRVQDALEAAGGVKPGVNTTDQNLARLLVDGEQIRIGLSS | 0.0302 |
| HMKVNMIIVMKPGARETDIQEVSNVLKSAGLGVHISKGTERTIIGVIGDKRLLNGIPLDLMHGVDKLVPIM | -0.0619 |
| HMPPPTLVESAYNHLKADIISSYLKPDEKINLKDLSQRYQVSETPIKQALNRLISEGLIISVPRKGMWVH | 0.065 |
| HMAVQAESDIIKRAALLRNLGNTSMQLKNIDQAIDFYKQGIKLHPEDAELKYNLSQALRQKSQSNN | 0.186 |
| HMVISAKRMQDRRDSILDAAREAFARAGFEGTSIADIARRAGVSDGLVYRYFASKRDLLNAVLTA | 0.216 |
| HMVDSLTIGRRIRQLRTERGMTLEELAAAVGRAPSQLSMIENGRREPKLTLLQAIARALGSTLDALLE | -0.404 |
| HMLTEERLQIITDTVNSRSSVTIAELSRILDVSPSTVKRDLNILAEAGKITKVRGGAIALGE | 0.164 |
| HMTEPIESVTTIAGRRIPYRLVRSLRARRMRMTIKESQVTVTLPRGVPLGEAERFLQQNAAWLFKQLDKP | 0.162 |
| HMDAKNNPQVMAQIRAILTAKGLSEDEVKTRLKTKNIDVDKMTDQEIIAQRPAIEAIINEMEQEKKQKMG | 0.142 |
| HMSNWYGTVVKIQPRPNAQAADTAVVKLLDGSEHRFPVWADHLTTIEVGSRLKKLSGGWDPVLMDPEETF | -0.573 |
| HMGLVQQSAQKSDDAAKLMAANNLNAAQSKYQLPDEAEKDFFTFAFERGYAVEDFVDAGLVDKIMADFSA | -0.44 |

| Sequence | soluble fraction (log2) |
| --- | --- |
| HMELSVTDRTRQIRHILKEKGRVEFTSLFEELTKPYVIVTFLSVLEMSKNNELMITQDKTFGSITLEMKG | -0.383 |
| HMVWPETEAIVTEDFIGKKRSEVQQEGVIFEFFGEGDMVIDQLPRGGVTLNESGRVWIYLGEDTF | -1.4 |
| HMKNAMTDIYLEEIKKILTKNEFLVYTLRELNNFSVQFITDNYDLSEKTIYNSVYRAKKKIDRHFT | -0.696 |
| HMKQNRNLPVQIINNGKIIESVMTEFNLDIDWVYSEAKRLGYKNIKDIFYAGINRDGQFFIVPLF | -1.35 |
| HMVKNVVIPDVSNKAPVDASNQLTDLGFEVVTEYKYIASDTIEEGKVVKTSPEIGSKRKYGQKITLYISSG | 0.205 |
| HMNFGEVLQTKRKSMGLTQEDLADKLFVSSETISNWETNKTTPDIDNVIRISQLFDISLNNLLL | -0.89 |
| HMLPERIQTIVALIGHGRAMDLVREFGGQEIKFPAQEGNDTWAALVEVIGEAATRKLAAVFGGGQAPPVYI | -0.593 |
| HMKKQLKSEAVADELRRKILSGGFPDKRLPRKDELTEYFQVSQKTVEAALKMLTAEGLIRGVKGTGIFVNG | 0.156 |
| HMLTGNTAKLFAHLVEVMNPKEFVKINRQTVIVEAGIPRGSVGAAIAKLLETGHLIANASGAYKLT | 0.0211 |
| HMHGYLSDPAARLIRARRKTLSIRITQEGNLEIRAPLGMPKGEIEAFLKEKAQWIETHRAKVLAEYA | -0.138 |
| HMPEVAHTIDMEAVNKHWDELPEREQRILVMRFYGNLTQTEIGERLGISQMHVSRLLARALSHLKSRLLD | -0.046 |
| HMLRIIDYNRVVKDLNGLTPEQLLEKLAESFTVEDKGTEEYRPTELHNFSMYLGGHWYSLTAKPGTYDDND | -0.926 |
| HMIISMKKTATKEQIAHVRELIEGMGYKAHMSVGAERVIFGAIGDERGKERLVSLEAQPGVEKVIPIL | ≥ 0.43 |
| HMNPFTHEEINLMSIYNAAGTREGLIAALTEMWGYLDAEETELRELADSALAKLRGITDAEYAALELE | -2.05 |
| HMNSVKSPMPGTILGLKVSVGDTVKVGDELLVLESMKMENMINSPIDGTVSKILISEGDSVQHGQELII | 0.102 |
| HMIGIGSDVPNKLKPAIYSFGLVAVGEKSVIPDGVQIGKNTAVSGVTSKEDYPDGVLESGETLIKA | 0.22 |
| HMRQSKMREAILAAVSAQKLEISDLHVWRIGEQRYAAIIGLATTQAESVSALRDSLAQMDKLVHLTIDQ | -1.16 |
| HMVIREVNDNPVSAEELRLGDRVKVLSLGQNGEIVTLPDEKGELTVQVGILKAKVNLDDIMLI | 0.0234 |
| HMAQLPADMSRVKSADVSDAQLREFVQKAQASGQTETQLFREFSRRGMPTNEINILRSRMVGLQNN | 0.0928 |
| HMDEPGTGFKWREDVLLRVMEANGIDTSHRDDFVRHAVKFDNDDNLYLKKAEIEDAAAAWVSEHS | -1.59 |
| HMTDPVLYEERDDIAIITINRPEKKNTLTDAVIQGIADGIDAATKSADVVAVVLRGAGDTLTAGYDLTA | -1.28 |
| HMNSTEQQTERFLATLTSLGGNAGNQRLQEALGWQGSTYQRIKQHLLDEGRIRTGRGRGGSVALSEATAT | ≥ 0.43 |
| HMKQLIGYSVIDIKMGKLGEISFVNSKTAQALIHVSKDGKGFYFPWHKQFVKNIDAEKGIMEVEIPKEFLD | -0.85 |
| HMSTGYEMVREVANQGSFSKAANSLGVSGPAVSKQVKSLEERLGLVLFHRTTRAVSLTQAGRQLVDVLN | -0.036 |
| HMVSFSIDEALVSAVKGPRSANVMSIQRQFLVRLSVERDGRVTITGANSKSVQQAREAVEAAVEEAKLHP | 0.238 |
